The values that follow come from patent US20160017341A1.

This assay addresses B-lymphocyte antigen CD20 (UniProt P11836). Description: direct binding of I-125 labeled antibody.
Chain of UniProt P11836 (P11836 whole entry): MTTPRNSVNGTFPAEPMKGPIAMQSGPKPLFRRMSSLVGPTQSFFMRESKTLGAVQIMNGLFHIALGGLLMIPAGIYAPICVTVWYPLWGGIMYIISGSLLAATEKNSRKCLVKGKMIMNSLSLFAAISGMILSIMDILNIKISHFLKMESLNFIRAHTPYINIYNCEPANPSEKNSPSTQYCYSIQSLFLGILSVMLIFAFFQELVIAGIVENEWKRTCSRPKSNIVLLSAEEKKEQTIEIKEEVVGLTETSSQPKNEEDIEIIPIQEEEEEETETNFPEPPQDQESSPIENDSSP

Turning to anti-CD20 monoclonal antibody 2B8, the apparent affinity constant (Kap) amounted to 3.5 nM.
